Laboratory results taken from the supplement of paper PMC10065799, “High-throughput profiling of sequence recognition by tyrosine kinases and SH2 domains using bacterial peptide display” (eLife, 2023).

Key:
[1] = target: Grb2 SH2 (UniProt P62993); test: SH2 binding enrichment of the phosphorylated peptide, bacterial display (enrichment ratio); higher = better substrate or ligand; peptides without Tyr show the background
[2] = target: c-Src SH2; test: as above
[3] = target: SHP2-C SH2; test: as above
[4] = target: Hck (UniProt P08631); test: phosphorylation enrichment, bacterial display (enrichment ratio); higher = better substrate or ligand; peptides without Tyr show the background
Sequence of Hck (P08631 whole entry, looked up): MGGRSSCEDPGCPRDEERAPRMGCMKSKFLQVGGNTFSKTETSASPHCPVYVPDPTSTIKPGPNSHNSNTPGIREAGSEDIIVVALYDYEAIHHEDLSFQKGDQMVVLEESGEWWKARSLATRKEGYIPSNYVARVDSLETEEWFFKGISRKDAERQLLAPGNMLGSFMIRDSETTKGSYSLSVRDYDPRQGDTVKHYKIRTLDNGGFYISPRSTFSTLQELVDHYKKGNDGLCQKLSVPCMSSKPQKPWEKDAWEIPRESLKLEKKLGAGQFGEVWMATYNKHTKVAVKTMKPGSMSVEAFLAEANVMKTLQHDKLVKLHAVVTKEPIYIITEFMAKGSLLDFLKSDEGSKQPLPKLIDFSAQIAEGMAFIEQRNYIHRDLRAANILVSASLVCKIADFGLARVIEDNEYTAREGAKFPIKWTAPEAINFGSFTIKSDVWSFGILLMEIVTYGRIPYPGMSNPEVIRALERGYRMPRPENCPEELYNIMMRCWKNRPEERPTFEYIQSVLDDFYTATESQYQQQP

[5] = target: MERTK (UniProt Q12866); test: as above
[6] = tested on: AncSZ; test: as above
[7] = target: Fes (UniProt P07332); test: as above
Sequence of Fes (P07332 whole entry, looked up): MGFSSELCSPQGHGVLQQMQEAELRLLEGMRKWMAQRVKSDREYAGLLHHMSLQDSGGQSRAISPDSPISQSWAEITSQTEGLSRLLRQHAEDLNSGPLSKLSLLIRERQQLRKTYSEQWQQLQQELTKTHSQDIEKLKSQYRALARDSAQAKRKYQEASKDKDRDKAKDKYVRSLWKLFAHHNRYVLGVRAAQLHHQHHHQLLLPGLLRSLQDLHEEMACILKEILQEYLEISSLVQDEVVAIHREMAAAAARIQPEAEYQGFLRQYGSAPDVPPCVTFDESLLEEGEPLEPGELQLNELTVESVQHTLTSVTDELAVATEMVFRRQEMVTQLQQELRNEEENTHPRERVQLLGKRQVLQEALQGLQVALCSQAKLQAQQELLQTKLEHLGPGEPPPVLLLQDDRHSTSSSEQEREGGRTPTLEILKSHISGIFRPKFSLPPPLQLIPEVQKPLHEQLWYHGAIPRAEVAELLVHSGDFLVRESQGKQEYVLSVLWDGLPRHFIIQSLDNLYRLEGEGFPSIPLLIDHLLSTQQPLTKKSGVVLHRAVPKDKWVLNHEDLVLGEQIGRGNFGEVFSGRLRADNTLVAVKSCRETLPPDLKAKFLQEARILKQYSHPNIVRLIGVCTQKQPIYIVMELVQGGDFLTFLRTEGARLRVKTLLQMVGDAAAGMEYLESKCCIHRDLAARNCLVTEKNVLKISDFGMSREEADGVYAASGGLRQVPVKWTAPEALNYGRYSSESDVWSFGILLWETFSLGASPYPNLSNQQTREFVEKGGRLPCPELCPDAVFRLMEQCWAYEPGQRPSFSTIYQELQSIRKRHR

[8] = target: Fyn (UniProt P06241); test: as above
Sequence of Fyn (P06241 whole entry, looked up): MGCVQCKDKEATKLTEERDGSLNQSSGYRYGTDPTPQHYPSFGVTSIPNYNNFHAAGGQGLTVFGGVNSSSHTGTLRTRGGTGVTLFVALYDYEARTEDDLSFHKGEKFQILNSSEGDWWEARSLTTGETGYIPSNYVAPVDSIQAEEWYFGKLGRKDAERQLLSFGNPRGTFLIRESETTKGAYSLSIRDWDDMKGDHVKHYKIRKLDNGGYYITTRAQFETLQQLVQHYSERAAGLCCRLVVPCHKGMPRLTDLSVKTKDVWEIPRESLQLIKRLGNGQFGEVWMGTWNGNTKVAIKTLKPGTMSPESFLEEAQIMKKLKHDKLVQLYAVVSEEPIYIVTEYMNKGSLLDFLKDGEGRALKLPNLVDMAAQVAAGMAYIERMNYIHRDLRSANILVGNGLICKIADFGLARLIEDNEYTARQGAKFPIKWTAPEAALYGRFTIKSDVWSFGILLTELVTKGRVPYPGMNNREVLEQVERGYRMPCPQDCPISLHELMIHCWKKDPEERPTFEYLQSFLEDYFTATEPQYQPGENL

[9] = target: FGFR3 (UniProt P22607); test: as above
Sequence of FGFR3 (P22607 whole entry, looked up): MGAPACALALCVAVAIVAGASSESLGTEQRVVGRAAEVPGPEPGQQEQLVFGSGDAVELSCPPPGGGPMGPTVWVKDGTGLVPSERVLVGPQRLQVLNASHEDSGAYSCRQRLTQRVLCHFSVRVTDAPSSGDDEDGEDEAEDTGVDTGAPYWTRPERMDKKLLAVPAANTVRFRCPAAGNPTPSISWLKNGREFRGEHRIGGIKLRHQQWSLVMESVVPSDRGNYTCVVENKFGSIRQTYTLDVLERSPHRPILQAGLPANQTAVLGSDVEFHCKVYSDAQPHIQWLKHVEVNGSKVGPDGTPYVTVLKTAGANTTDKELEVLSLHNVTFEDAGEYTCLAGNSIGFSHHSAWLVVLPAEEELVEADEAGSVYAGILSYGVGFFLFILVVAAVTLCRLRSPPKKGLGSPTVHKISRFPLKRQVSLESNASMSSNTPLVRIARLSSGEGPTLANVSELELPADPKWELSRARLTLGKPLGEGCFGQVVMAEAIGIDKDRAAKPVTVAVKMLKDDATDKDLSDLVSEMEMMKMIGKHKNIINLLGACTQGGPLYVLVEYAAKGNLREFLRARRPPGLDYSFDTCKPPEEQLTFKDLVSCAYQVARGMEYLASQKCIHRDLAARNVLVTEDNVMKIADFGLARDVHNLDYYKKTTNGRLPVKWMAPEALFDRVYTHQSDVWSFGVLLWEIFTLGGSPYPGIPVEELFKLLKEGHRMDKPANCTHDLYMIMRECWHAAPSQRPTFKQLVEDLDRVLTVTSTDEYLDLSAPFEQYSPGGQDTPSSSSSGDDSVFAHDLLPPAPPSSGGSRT

[10] = tested on: Fer (mouse); test: as above
[11] = target: EPHB1 (UniProt P54762); test: as above
Sequence of EPHB1 (P54762 whole entry, looked up): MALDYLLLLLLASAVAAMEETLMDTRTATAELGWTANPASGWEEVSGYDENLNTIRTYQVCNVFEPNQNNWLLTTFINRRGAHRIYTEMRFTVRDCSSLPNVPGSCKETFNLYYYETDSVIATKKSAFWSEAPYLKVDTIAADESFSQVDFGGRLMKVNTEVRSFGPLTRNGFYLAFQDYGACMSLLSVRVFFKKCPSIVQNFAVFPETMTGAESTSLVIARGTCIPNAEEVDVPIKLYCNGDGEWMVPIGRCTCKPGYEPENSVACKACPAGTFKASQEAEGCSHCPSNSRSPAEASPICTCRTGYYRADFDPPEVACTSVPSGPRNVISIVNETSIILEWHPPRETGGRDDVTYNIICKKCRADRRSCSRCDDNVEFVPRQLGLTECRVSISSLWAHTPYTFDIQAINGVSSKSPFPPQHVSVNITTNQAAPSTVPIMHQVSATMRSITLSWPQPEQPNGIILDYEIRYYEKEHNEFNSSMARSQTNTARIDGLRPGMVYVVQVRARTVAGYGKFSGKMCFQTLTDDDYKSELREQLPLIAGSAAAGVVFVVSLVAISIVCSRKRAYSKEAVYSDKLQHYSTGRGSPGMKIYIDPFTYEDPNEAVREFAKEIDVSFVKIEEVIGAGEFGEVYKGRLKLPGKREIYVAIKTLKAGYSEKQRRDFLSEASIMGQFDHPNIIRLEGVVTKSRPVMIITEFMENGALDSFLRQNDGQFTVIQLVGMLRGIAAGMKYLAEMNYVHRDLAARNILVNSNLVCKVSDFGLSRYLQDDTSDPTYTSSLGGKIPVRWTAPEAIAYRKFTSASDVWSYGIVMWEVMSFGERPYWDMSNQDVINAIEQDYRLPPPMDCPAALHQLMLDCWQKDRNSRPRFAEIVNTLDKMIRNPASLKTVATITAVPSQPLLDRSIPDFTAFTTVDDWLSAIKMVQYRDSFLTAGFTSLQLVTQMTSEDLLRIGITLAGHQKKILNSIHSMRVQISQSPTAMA

[12] = tested on: c-Src; test: as above
[13] = tested on: c-Abl (mouse); test: as above
[14] = target: FGFR1 (UniProt P11362); test: as above
[15] = target: Jak2 (UniProt O60674); test: as above
[16] = target: EPHB2 (UniProt P29323); test: as above
Sequence of EPHB2 (P29323 whole entry, looked up, the tested form may be a part): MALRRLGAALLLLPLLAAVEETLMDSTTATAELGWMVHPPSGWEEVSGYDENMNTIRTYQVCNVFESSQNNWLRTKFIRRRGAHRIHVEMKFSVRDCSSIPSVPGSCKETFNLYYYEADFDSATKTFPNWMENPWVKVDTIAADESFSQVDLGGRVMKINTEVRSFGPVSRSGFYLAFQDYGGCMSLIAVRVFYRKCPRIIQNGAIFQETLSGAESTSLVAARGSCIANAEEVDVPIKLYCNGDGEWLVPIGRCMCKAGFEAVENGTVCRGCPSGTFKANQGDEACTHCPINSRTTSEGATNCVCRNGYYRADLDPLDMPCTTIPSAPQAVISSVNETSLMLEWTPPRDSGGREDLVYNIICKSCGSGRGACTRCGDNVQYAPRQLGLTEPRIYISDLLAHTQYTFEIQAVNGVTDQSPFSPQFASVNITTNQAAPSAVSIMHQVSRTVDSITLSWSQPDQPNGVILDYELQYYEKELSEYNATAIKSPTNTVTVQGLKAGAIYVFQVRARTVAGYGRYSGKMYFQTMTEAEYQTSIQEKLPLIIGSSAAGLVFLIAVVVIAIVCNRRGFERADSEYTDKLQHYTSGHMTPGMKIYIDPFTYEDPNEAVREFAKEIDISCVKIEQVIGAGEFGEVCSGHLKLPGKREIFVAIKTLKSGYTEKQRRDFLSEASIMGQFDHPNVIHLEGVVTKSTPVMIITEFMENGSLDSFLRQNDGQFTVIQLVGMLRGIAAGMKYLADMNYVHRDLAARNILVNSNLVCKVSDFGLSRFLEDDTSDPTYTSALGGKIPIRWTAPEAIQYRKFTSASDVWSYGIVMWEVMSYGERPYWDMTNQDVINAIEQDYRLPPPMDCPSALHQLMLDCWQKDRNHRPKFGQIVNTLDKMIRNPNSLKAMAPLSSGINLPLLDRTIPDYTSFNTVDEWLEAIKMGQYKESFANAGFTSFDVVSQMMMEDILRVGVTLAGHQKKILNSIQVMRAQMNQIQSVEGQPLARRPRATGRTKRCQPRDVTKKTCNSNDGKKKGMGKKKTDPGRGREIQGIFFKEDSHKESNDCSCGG
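Throughout, for SH2 binding enrichment of the phosphorylated peptide, bacterial display: peptide library displayed on the E. coli surface as eCPX fusions, selected cells deep-sequenced, score is each peptide's frequency after selection divided by its frequency in the input.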
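Throughout, for phosphorylation enrichment, bacterial display: 11-residue human phosphosite peptides and single-mutation variants displayed on the E. coli surface, counted by deep sequencing, each peptide's frequency after selection divided by its frequency in the unselected input library; frequency after pTyr selection over input frequency; kinase dosed for 20-30% of maximal phosphorylation in three min.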

Sequence of Grb2 SH2 (P62993 whole entry, looked up): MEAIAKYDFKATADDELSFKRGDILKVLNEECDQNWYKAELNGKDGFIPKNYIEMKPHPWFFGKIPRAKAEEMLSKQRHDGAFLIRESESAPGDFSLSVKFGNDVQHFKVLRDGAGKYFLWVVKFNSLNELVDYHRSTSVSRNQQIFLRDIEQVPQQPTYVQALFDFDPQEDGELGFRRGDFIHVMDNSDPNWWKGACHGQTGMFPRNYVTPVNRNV

| Sequence | SH2 binding enrichment [1] | SH2 binding enrichment [2] | SH2 binding enrichment [3] | phosphorylation enrichment [4] | phosphorylation enrichment [5] | phosphorylation enrichment [6] | phosphorylation enrichment [7] | phosphorylation enrichment [8] | phosphorylation enrichment [9] | phosphorylation enrichment [10] | phosphorylation enrichment [11] | phosphorylation enrichment [12] | phosphorylation enrichment [13] | phosphorylation enrichment [14] | phosphorylation enrichment [15] | phosphorylation enrichment [16] |
| --- | --- | --- | --- | --- | --- | --- | --- | --- | --- | --- | --- | --- | --- | --- | --- | --- |
| SLVVPYEPPEV [TP53_Y220_V216L] | 0.789 | 0.696 | 0.772 | 0.663 | 0.595 | 1.28 | 1.29 | 0.62 | 0.836 | 0.666 | 0.769 | 0.547 | 1.26 | 0.672 | 1.33 | 0.756 |
| SQGRQYQELPR [KCNH2_Y1009_R1005Q] | 0.82 | 1.41 | 0.545 | 0.668 | 0.412 | 0.666 | 0.568 | 0.45 | 0.477 | 0.402 | 0.354 | 0.423 | 0.473 | 0.483 | 0.517 | 0.402 |
| SRDDYYETIAM [NPY1R_Y347_D346Y] | 0.589 | 3.29 | 0.431 | 1.18 | 0.467 | 1.33 | 1.01 | 0.798 | 6.01 | 4.75 | 2.19 | 0.656 | 0.634 | 8.35 | 0.808 | 1.53 |
| SRFQFYFQQKG [CHKB_Y381] | 0.692 | 0.473 | 0.728 | 0.551 | 0.369 | 1.63 | 1.56 | 0.48 | 1.02 | 0.597 | 0.938 | 0.379 | 0.99 | 0.579 | 1.47 | 0.612 |
| SSAETYSRMRL [NBEAL2_Y1835] | 0.719 | 0.691 | 0.724 | 0.709 | 0.412 | 0.513 | 0.577 | 0.431 | 0.44 | 0.54 | 0.443 | 0.471 | 0.509 | 0.393 | 0.501 | 0.436 |
| SSNPEYLSASD [INSR_Y999] | 0.977 | 0.557 | 0.642 | 0.462 | 0.476 | 1.12 | 1 | 0.531 | 0.695 | 0.491 | 0.514 | 0.458 | 0.719 | 0.498 | 0.961 | 0.594 |
| SSPQLYLVPFL [TAF4_Y652_P651L] | 1.35 | 0.721 | 1.21 | 0.907 | 7.97 | 1.3 | 0.974 | 0.7 | 2.11 | 1.23 | 4.26 | 0.721 | 13.2 | 2.18 | 7 | 3.08 |
| SSQTVYQRVEG [TFR2_Y23] | 0.853 | 2.23 | 2.4 | 0.77 | 0.499 | 0.962 | 0.708 | 0.6 | 0.483 | 0.517 | 0.631 | 0.585 | 0.458 | 0.526 | 0.596 | 0.447 |
| SSREGYVSHHN [FAM83B_Y433] | 0.76 | 0.449 | 0.659 | 0.354 | 0.453 | 0.548 | 0.502 | 0.457 | 0.464 | 0.326 | 0.345 | 0.399 | 0.445 | 0.443 | 0.48 | 0.321 |
| SSTAMYSAAGR [PSMB1_Y8_P11A] | 0.897 | 0.774 | 0.609 | 0.755 | 0.511 | 0.451 | 0.455 | 0.403 | 0.342 | 0.442 | 0.35 | 0.424 | 0.444 | 0.512 | 0.458 | 0.364 |
| STKPQYQPGEN [SRC_Y530_E527K] | 0.833 | 0.417 | 1.09 | 0.361 | 0.395 | 0.575 | 0.579 | 0.363 | 0.412 | 0.311 | 0.363 | 0.396 | 0.519 | 0.389 | 0.63 | 0.36 |
| STSFDYCRVPM [BST2_Y8_YF] | 0.675 | 0.558 | 0.571 | 1.57 | 0.903 | 2.98 | 1.32 | 0.828 | 3.97 | 0.827 | 9.03 | 0.957 | 0.932 | 5.41 | 2.03 | 5.96 |
| STTSDYQWDFS [MTDH_Y364_V368F] | 0.821 | 0.573 | 0.637 | 0.524 | 0.409 | 1.36 | 1.1 | 0.473 | 1.27 | 0.598 | 0.905 | 0.58 | 0.736 | 1.24 | 1.14 | 0.776 |
| SVGGLYRDMGA [CBX8_Y321_G317V] | 0.72 | 0.393 | 0.53 | 0.481 | 0.483 | 0.699 | 0.791 | 0.408 | 0.561 | 0.446 | 0.567 | 0.385 | 0.555 | 0.541 | 0.734 | 0.43 |
| SVNIRYLLFPS [SERAC1_Y548] | 1.72 | 1.38 | 1.67 | 0.558 | 0.46 | 1.08 | 1.36 | 0.47 | 0.929 | 0.469 | 0.714 | 0.463 | 0.817 | 0.574 | 1.25 | 0.634 |
| SVQVDYMKTIL [GLYATL2_Y127] | 0.772 | 0.517 | 0.656 | 0.517 | 0.428 | 0.908 | 0.776 | 0.407 | 0.643 | 0.644 | 0.527 | 0.446 | 0.642 | 0.505 | 0.791 | 0.611 |
| SVSVNYGDQVQ [GRAP_Y101] | 0.941 | 0.487 | 0.651 | 0.416 | 0.545 | 0.748 | 0.902 | 0.409 | 0.561 | 0.442 | 0.443 | 0.429 | 0.804 | 0.481 | 0.794 | 0.483 |
